Reference: IntAct's records for PubMed 26894577

Target: 2aba_human PPP2R2A (UniProt P63151)
UniProt P63151, sequence (P63151 whole entry): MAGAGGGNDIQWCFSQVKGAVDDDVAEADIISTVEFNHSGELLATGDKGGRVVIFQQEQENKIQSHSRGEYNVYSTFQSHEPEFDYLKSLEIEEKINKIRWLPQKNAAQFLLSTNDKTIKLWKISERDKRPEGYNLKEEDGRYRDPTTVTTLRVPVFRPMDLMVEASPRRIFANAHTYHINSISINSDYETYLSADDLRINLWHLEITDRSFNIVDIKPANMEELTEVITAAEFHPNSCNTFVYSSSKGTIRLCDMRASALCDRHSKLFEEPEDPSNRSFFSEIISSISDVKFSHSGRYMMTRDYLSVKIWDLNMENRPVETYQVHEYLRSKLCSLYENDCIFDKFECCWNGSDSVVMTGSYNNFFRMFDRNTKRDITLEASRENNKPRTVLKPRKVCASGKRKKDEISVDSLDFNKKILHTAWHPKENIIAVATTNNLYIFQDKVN

For “Leucine-rich repeat serine/threonine-protein kinase 2 (Homo sapiens), Q5S007 R1441C”, the “effect of a mutation on the interaction” value was “with no effect”.
